Measured values: patent publication US20060046271A1 (VANDERBILT UNIVERSITY, published 2006)

Target: α2bβ3 receptor (mouse (endogenous, tumor-bearing …, UniProt Q9QUM0 32-1033; O54890 26-787)
Assay: cell-based or functional assay

Chain of α2bβ3 receptor (mouse (Q9QUM0 32-1033, chain 1 of 2): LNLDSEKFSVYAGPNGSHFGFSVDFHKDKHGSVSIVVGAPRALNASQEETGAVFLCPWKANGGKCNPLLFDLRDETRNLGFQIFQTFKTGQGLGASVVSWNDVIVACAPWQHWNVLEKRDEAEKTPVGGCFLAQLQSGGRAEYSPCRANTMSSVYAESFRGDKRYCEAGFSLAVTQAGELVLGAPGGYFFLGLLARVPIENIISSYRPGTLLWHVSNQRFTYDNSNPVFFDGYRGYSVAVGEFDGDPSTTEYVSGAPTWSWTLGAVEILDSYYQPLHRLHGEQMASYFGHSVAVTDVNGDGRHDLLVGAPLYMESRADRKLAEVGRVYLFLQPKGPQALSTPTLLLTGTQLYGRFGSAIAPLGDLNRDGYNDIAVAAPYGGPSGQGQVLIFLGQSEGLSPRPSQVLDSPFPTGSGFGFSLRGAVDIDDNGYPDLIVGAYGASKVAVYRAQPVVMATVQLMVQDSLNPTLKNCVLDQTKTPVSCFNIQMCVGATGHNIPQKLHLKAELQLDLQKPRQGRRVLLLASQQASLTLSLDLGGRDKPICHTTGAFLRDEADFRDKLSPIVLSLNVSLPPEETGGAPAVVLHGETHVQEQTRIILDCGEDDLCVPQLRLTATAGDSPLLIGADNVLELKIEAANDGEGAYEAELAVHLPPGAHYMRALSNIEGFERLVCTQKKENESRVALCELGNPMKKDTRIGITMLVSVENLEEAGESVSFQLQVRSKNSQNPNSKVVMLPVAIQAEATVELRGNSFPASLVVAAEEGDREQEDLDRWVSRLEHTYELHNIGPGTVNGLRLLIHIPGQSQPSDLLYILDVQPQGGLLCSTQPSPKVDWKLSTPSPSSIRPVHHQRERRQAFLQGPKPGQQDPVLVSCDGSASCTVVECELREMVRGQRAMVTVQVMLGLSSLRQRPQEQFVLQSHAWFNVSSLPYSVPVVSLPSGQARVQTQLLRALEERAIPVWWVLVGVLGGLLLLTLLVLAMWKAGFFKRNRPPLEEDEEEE
Chain of α2bβ3 receptor (mouse (O54890 26-787, chain 2 of 2): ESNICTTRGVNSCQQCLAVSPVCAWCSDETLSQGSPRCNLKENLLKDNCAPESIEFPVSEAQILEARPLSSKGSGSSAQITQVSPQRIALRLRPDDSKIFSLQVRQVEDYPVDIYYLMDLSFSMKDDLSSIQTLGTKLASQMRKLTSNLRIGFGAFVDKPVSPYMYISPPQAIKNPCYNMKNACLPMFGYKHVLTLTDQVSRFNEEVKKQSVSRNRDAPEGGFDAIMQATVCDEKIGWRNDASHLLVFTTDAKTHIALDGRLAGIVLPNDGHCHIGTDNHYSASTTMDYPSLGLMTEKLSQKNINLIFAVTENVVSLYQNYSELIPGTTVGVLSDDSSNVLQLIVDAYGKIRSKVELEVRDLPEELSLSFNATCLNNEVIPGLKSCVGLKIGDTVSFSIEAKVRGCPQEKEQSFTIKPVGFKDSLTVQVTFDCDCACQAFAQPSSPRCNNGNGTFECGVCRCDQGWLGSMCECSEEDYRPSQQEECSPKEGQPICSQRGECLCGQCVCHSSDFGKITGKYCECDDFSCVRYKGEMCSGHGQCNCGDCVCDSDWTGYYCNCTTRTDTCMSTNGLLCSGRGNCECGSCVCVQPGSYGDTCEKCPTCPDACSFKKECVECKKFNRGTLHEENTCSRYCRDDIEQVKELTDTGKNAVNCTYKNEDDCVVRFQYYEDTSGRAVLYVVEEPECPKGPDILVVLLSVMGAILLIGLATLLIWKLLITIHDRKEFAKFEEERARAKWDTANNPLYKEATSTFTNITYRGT

B1: Phage encoding SLRGDGSSV (SEQ ID NO: 2) on the capsid protein (peptide)
peptide: MASMTGGQQMGTNQGKGVVAAGDKLALFLKVFGGEVLTAFARTSVTTSRHMVRSISSGKSAQFPVLGRTQAAYLAPGENLDDKRKDIKHTEKVITIDGLLTADVLIYDIEDAMNHYDVRSEYTSQLGESLAMAADGAVLAEIAGLCNVESKYNENIEGLGTATVIETTQNKAALTDQVALGKEIIAALTKARAALTKNYVPAADRVFYCDPDSYSAILAALMPNAANYAALIDPEKGSIRNVMGFEVVEVPHLTAGGAGTAREGTTGQKHVFPANKGEGNVKVAKDNVIGLFMHRSAVGTVKLRDLALERARRANFQADQIIAKYAMGHGGLRPEAAGAVVFQSGVMLNSLRGDGSSV
phage binding in tumor (phage recovered, quantified by plaque formation): 4 fold
